Biological target: biotinylated soluble IA^b-p3K (mouse)
Assay: SPR

Kd: 9 µM
Substance: soluble YAe62 TCR
